Measurements published in article PMC7261175, “A splice site-sensing conformational switch in U2AF2 is modulated by U2AF1 and its recurrent myelodysplasia-associated mutation” (Nucleic Acids Research, 2019).

Experiments:
[1] = target: T1, His6SumoMBP-U2AF1 S34F;U2AF2 Cy3/Cy5 (human;human, UniProt Q01081;P26368-2 1-188;85-342, S34F;C67S|A181C;C305A;Q324C); assay: smFRET; RNA tethered; same as IgM(-3C); Anisotropy: 150 mM NaCl, 25 mM HEPES pH 6.8, 0.5 mM TCEP, 3% glycerol, 20 uM ZnCl2, 0.2 U/ul SUPERase-In; smFRET: 25 mM HEPES pH 7.0, 150 mM KCl, 0.01% octaethylene glycol monododecyl ether, 0.2 mM TCEP, 6 mM BME, 1.5 mM Trolox, oxygen scavenger, room temperature, excess U2AF1 (1000 nM) with heterodimer; settings: protein: recombinant;recombinant; tags: N-terminal His6-SUMO-MBP with AAA linker; C-terminal extra Ala;GST cleaved; Cy3/Cy5 on C181 and C324; copies: 1;1; label: biotin on annealed DNA; stem-loop (predicted)
[2] = target: T2, His6SumoMBP-U2AF1;U2AF2 Cy3/Cy5 (human;human, UniProt Q01081;P26368-2 1-188;85-342, C67S|A181C;C305A;Q324C); assay: smFRET; RNA tethered; more open than IgM(-3C); Anisotropy: 150 mM NaCl, 25 mM HEPES pH 6.8, 0.5 mM TCEP, 3% glycerol, 20 uM ZnCl2, 0.2 U/ul SUPERase-In; smFRET: 25 mM HEPES pH 7.0, 150 mM KCl, 0.01% octaethylene glycol monododecyl ether, 0.2 mM TCEP, 6 mM BME, 1.5 mM Trolox, oxygen scavenger, room temperature, excess U2AF1 (1000 nM) with heterodimer; settings: protein: recombinant;recombinant; tags: N-terminal His6-SUMO-MBP with AAA linker; C-terminal extra Ala;GST cleaved; Cy3/Cy5 on C181 and C324; copies: 1;1; label: biotin on annealed DNA; stem-loop (predicted)
[3] = target: T2, His6SumoMBP-U2AF1;U2AF2 Cy3/Cy5; assay: smFRET titration; protein tethered; from 0.4 and 0.6 FRET peak areas; Anisotropy: 150 mM NaCl, 25 mM HEPES pH 6.8, 0.5 mM TCEP, 3% glycerol, 20 uM ZnCl2, 0.2 U/ul SUPERase-In; smFRET: 25 mM HEPES pH 7.0, 150 mM KCl, 0.01% octaethylene glycol monododecyl ether, 0.2 mM TCEP, 6 mM BME, 1.5 mM Trolox, oxygen scavenger, room temperature, excess U2AF1 (1000 nM) with heterodimer; settings: protein: recombinant;recombinant; tags: N-terminal His6-SUMO-MBP with AAA linker; C-terminal extra Ala;GST cleaved; Cy3/Cy5 on C181 and C324; copies: 1;1
[4] = target: T3, U2AF2 Cy3/Cy5 isolated subunit (human, UniProt P26368-2 113-342, A181C;C305A;Q324C); assay: smFRET; RNA tethered; Anisotropy: 150 mM NaCl, 25 mM HEPES pH 6.8, 0.5 mM TCEP, 3% glycerol, 20 uM ZnCl2, 0.2 U/ul SUPERase-In; smFRET: 25 mM HEPES pH 7.0, 150 mM KCl, 0.01% octaethylene glycol monododecyl ether, 0.2 mM TCEP, 6 mM BME, 1.5 mM Trolox, oxygen scavenger, room temperature, excess U2AF1 (1000 nM) with heterodimer; settings: protein: recombinant, tags: His6 and T7 tags, label: biotin on annealed DNA, stem-loop
[5] = target: T2, His6SumoMBP-U2AF1;U2AF2 Cy3/Cy5; assay: smFRET; RNA tethered; ~70% closed; Anisotropy: 150 mM NaCl, 25 mM HEPES pH 6.8, 0.5 mM TCEP, 3% glycerol, 20 uM ZnCl2, 0.2 U/ul SUPERase-In; smFRET: 25 mM HEPES pH 7.0, 150 mM KCl, 0.01% octaethylene glycol monododecyl ether, 0.2 mM TCEP, 6 mM BME, 1.5 mM Trolox, oxygen scavenger, room temperature, excess U2AF1 (1000 nM) with heterodimer; settings: protein: recombinant;recombinant; tags: N-terminal His6-SUMO-MBP with AAA linker; C-terminal extra Ala;GST cleaved; Cy3/Cy5 on C181 and C324; copies: 1;1; label: biotin on annealed DNA; stem-loop
[6] = target: T1, His6SumoMBP-U2AF1 S34F;U2AF2 Cy3/Cy5; assay: smFRET; RNA tethered; similar to WT; Anisotropy: 150 mM NaCl, 25 mM HEPES pH 6.8, 0.5 mM TCEP, 3% glycerol, 20 uM ZnCl2, 0.2 U/ul SUPERase-In; smFRET: 25 mM HEPES pH 7.0, 150 mM KCl, 0.01% octaethylene glycol monododecyl ether, 0.2 mM TCEP, 6 mM BME, 1.5 mM Trolox, oxygen scavenger, room temperature, excess U2AF1 (1000 nM) with heterodimer; settings: protein: recombinant;recombinant, tags: N-terminal His6-SUMO-MBP with AAA linker, C-terminal extra Ala;GST cleaved, Cy3/Cy5 on C181 and C324, copies: 1;1, label: biotin on annealed DNA
[7] = target: T1, His6SumoMBP-U2AF1 S34F;U2AF2 Cy3/Cy5; assay: smFRET; RNA tethered; 33% closed; Anisotropy: 150 mM NaCl, 25 mM HEPES pH 6.8, 0.5 mM TCEP, 3% glycerol, 20 uM ZnCl2, 0.2 U/ul SUPERase-In; smFRET: 25 mM HEPES pH 7.0, 150 mM KCl, 0.01% octaethylene glycol monododecyl ether, 0.2 mM TCEP, 6 mM BME, 1.5 mM Trolox, oxygen scavenger, room temperature, excess U2AF1 (1000 nM) with heterodimer; settings: protein: recombinant;recombinant; tags: N-terminal His6-SUMO-MBP with AAA linker; C-terminal extra Ala;GST cleaved; Cy3/Cy5 on C181 and C324; copies: 1;1; label: biotin on annealed DNA
[8] = target: T2, His6SumoMBP-U2AF1;U2AF2 Cy3/Cy5; assay: smFRET; RNA tethered; 66% closed; Anisotropy: 150 mM NaCl, 25 mM HEPES pH 6.8, 0.5 mM TCEP, 3% glycerol, 20 uM ZnCl2, 0.2 U/ul SUPERase-In; smFRET: 25 mM HEPES pH 7.0, 150 mM KCl, 0.01% octaethylene glycol monododecyl ether, 0.2 mM TCEP, 6 mM BME, 1.5 mM Trolox, oxygen scavenger, room temperature, excess U2AF1 (1000 nM) with heterodimer; settings: protein: recombinant;recombinant; tags: N-terminal His6-SUMO-MBP with AAA linker; C-terminal extra Ala;GST cleaved; Cy3/Cy5 on C181 and C324; copies: 1;1; label: biotin on annealed DNA
[9] = target: T2, His6SumoMBP-U2AF1;U2AF2 Cy3/Cy5; assay: smFRET; RNA tethered; open and closed; Anisotropy: 150 mM NaCl, 25 mM HEPES pH 6.8, 0.5 mM TCEP, 3% glycerol, 20 uM ZnCl2, 0.2 U/ul SUPERase-In; smFRET: 25 mM HEPES pH 7.0, 150 mM KCl, 0.01% octaethylene glycol monododecyl ether, 0.2 mM TCEP, 6 mM BME, 1.5 mM Trolox, oxygen scavenger, room temperature, excess U2AF1 (1000 nM) with heterodimer; settings: protein: recombinant;recombinant; tags: N-terminal His6-SUMO-MBP with AAA linker; C-terminal extra Ala;GST cleaved; Cy3/Cy5 on C181 and C324; copies: 1;1; label: biotin on annealed DNA
[10] = target: T3, U2AF2 Cy3/Cy5 isolated subunit; assay: as above; settings: protein: recombinant; tags: His6 and T7 tags; Cy3/Cy5; label: biotin on annealed DNA
[11] = target: T4, U2AF2^Cy3/Cy5 (residues 85-342, C305A, A181C, Q324C, labelled with Cy3/Cy5) (human, UniProt P26368-2 85-342, C305A | A181C | Q324C, Cy3- or Cy5-maleimide on the cysteines at 181 and 324 (a mixture of Cy3/Cy5 at each site)); assay: SEC; labelled U2AF2 mixed with stoichiometric His6SumoMBP-U2AF1, salt lowered to 150 mM NaCl, 25 mM HEPES pH 7.0, 3% glycerol, 0.2 mM TCEP; complex purified on Superdex-200; settings: both partners purified
T4 construct: pGEX6p-1 vector, GST removed with PreScission protease; also called U2AF^65; labeled U2AF2; not shown: GST, N-terminal, cleaved

[12] = target: T5, D215R/G319R U2AF2^Cy3/Cy5 (residues 85-342, C305A, A181C, Q324C, labelled with Cy3/Cy5) (human, UniProt P26368-2 85-342, D215R | G319R | C305A | A181C | Q324C, Cy3- or Cy5-maleimide on the cysteines at 181 and 324 (a mixture of Cy3/Cy5 at each site)); assay: single-molecule imaging (smFRET, TIRF) of labelled U2AF2 tethered to the slide through His-tagged U2AF1; His6SumoMBP-U2AF1 with bound U2AF2^Cy3/Cy5 (5 nM heterodimer) held on biotinyl-NTA(Ni2+)/neutravidin slide; 1000 nM excess U2AF1 in the buffer; no RNA; room temperature; 25 mM HEPES pH 7.0, 150 mM KCl; settings: both partners purified
T5 construct: The methods print the mutant once as D215R-D319R; results, legends and discussion print D215R/G319R; also called D215R/G319R mutant; D215R-D319R-mutant U2AF2; not shown: GST, N-terminal, cleaved

[13] = target: T4, U2AF2^Cy3/Cy5 (residues 85-342, C305A, …); assay: as above; settings: both partners purified

T2 sequence (P26368 85-342 A181C/C305A/Q324C, one chain of several): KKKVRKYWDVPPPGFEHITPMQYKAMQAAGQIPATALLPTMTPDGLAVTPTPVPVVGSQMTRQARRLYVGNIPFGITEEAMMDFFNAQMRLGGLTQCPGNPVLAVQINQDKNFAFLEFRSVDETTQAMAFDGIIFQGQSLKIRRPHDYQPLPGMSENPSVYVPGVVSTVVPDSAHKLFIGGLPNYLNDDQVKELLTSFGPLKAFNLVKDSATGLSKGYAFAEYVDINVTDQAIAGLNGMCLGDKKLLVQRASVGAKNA
T1 sequence (P26368 85-342 A181C/C305A/Q324C, one chain of several): as above
T4 sequence (P26368 85-342 A181C/C305A/Q324C): as the sequence (P26368 85-342 A181C/C305A/Q324C, one chain of several) above
T3 sequence (P26368 113-342 A181C/C305A/Q324C): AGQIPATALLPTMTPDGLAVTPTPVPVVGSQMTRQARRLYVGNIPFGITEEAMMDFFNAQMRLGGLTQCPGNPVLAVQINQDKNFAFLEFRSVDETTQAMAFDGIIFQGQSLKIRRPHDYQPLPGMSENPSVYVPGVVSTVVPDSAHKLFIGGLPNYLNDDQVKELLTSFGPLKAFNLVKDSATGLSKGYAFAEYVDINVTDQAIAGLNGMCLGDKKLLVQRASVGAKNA
T5 sequence (P26368 85-342 A181C/D215R/C305A/G319R/Q324C): as the sequence (P26368 85-342 A181C/C305A/Q324C, one chain of several) above, with D131R, G235R counted along it

**Q.** Does UGUCUCUGUCACCUGUAGGUGAAAUG (structured_RNA, 3' PEG18-DNA conjugate) [IgM(-3U)] bind [1]?
**A.** binds

**Q.** Does UGUCUCUGUCACCUGUAGGUGAAAUG (structured_RNA, 3' PEG18-DNA conjugate) [IgM(-3U)] bind [2]?
**A.** binds

**Q.** UCCCUUUUUUUUCCACAGCUCGCGGU (ssRNA) [AdML] was tested. Which Kd [3] did it give?
**A.** ~600 nM

**Q.** Does UGUCUCUGUCACCUGCAGGUGAAAUG (structured_RNA, 3' PEG18-DNA conjugate) [IgM (-3C)] bind [4]?
**A.** binds

**Q.** Does UGUCUCUGUCACCUGCAGGUGAAAUG (structured_RNA, 3' PEG18-DNA conjugate) [IgM (-3C)] bind [5]?
**A.** binds

**Q.** Does UGUCUCUGUCACCUGCAGGUGAAAUG (structured_RNA, 3' PEG18-DNA conjugate) [IgM (-3C)] bind ([6]; stem-loop)?
**A.** binds

**Q.** Which results are given for ACUUUUAACUCUCGAUAGGAACUAAU (ssRNA, 3' PEG18-DNA conjugate) [FMR1]?
**A.** binding result [7]: binds; binding result [8]: binds

**Q.** Does UACUAAAUUAAUUUCUAGAAAAGAGU (ssRNA, 3' PEG18-DNA conjugate) [DEK (-3U)] bind [6]?
**A.** binds

**Q.** Does UACUAAAUUAAUUUCUAGAAAAGAGU (ssRNA, 3' PEG18-DNA conjugate) [DEK (-3U)] bind [9]?
**A.** binds

**Q.** Does UACUAAAUUAAUUUCUAGAAAAGAGU (ssRNA, 3' PEG18-DNA conjugate) [DEK (-3U)] bind [10]?
**A.** binds

**Q.** Does CCAUUUAUUUUGACUUAGAUUAUAUU (ssRNA, 3' PEG18-DNA conjugate) [CASP8] bind [6]?
**A.** binds

**Q.** Does CCAUUUAUUUUGACUUAGAUUAUAUU (ssRNA, 3' PEG18-DNA conjugate) [CASP8] bind [9]?
**A.** binds

B1: His6SumoMBP-U2AF1 (residues 1-188, C67S, C-terminal alanine) (domain or fragment, human)
chain: MAEYLASIFGTEKDKVNCSFYFKIGACRHGDRCSRLHNKPTFSQTIALLNIYRNPQNSSQSADGLRSAVSDVEMQEHYDEFFEEVFTEMEEKYGEVEEMNVCDNLGDHLVGNVYVKFRREEDAEKAVIDLNNRWFNGQPIHAELSPVTDFREACCRQYEMGECTRGGFCNFMHLKPISRELRRELYGRA
notes: C-terminal alanine added to enhance soluble protein expression; A three-alanine linker is part of the N-terminal tag; Modified pCDF-1b vector; also called U2AF^35; MBP-fused U2AF1; source: E. coli BL21(DE3), purified (HisTrap, Superdex-75 SEC); not shown: His6, N-terminal, kept; Sumo, N-terminal, kept; MBP, N-terminal, kept
**Q.** Does B1 bind [11]?
**A.** binds

**Q.** Does B1 bind [12]?
**A.** binds

B2: S34F-mutant His6SumoMBP-U2AF1 (residues 1-188, C67S, C-terminal alanine) (domain or fragment, human)
chain: MAEYLASIFGTEKDKVNCSFYFKIGACRHGDRCFRLHNKPTFSQTIALLNIYRNPQNSSQSADGLRSAVSDVEMQEHYDEFFEEVFTEMEEKYGEVEEMNVCDNLGDHLVGNVYVKFRREEDAEKAVIDLNNRWFNGQPIHAELSPVTDFREACCRQYEMGECTRGGFCNFMHLKPISRELRRELYGRA
notes: C-terminal alanine added to enhance soluble protein expression; S34F was introduced into the corresponding wild-type U2AF1 construct; three-alanine linker in the N-terminal tag as for m1; also called S34F U2AF1; S34F mutant U2AF1; source: E. coli BL21(DE3), purified by identical methods as the wild-type parent (HisTrap, Superdex-75 SEC); not shown: His6, N-terminal, kept; Sumo, N-terminal, …
**Q.** Does B2 bind [13]?
**A.** binds
